Results published in patent US11419921B2, “Methods of treating neurological disorders” (EnClear Therapies, Inc., priority 2018, dated 2022).

System: (GR)10
Assay: Cleavage of (GR)10 by enzymes in solution (PBS with CaCl2 and MgCl2), LC/MS of GR repeats
Format: biochemical
Conditions: (GR)10 50 μM
Method: • (GR)10 dipeptide (also (GR)8, (GR)6, (GR)4, (GR)2) were synthetized by solid-phase synthesis by CanPeptide; All peptides are uncapped and supplied lyophilized with TFA as counter ions. Purity was always above 95%. • Buffer: PBS buffer containing CaCl2 and MgCl2. • Stock solution of enzyme (e.g., 10 mg/mL) (prepared per manufacturer instructions) in PBS. Activators added as necessary. • Working solution of protein of the desired concentration (e.g., 100 μg/mL) prepared immediately before use by diluting the stock solution (e.g., 5 μL of 10 mg/mL stock solution) in PBS buffer (e.g., in 495 μL of PBS). Exemplary Procedure Using 50 μM Concentrations of (GR)10
25 μL of a 100 μM solution of (GR)10 was added to each well of a 96-well plate. 25 μL of a solution of enzyme (two times the desired final enzyme concentration) was added, and the plates were incubated at room temperature. At the specified time points (5 minutes, 10 minutes, 30 minutes, 60 minutes, and 180 minutes) 2.5 μL of a 10% TFA solution were added to stop the reaction. For the time 0 min well, the TFA was added to the well before addition of the enzyme. After last time point, all samples were further diluted with 150 μL of dilution solution. The quenched reaction mixtures were analyzed by LC/MS to determine the concentration of GR repeats of different lengths.
The chromatography and mass spectrometry conditions utilized are shown in Table 2 and Table 3, respectively.

B1: Proteinase K: protease that cleaves peptide bonds adjacent to the carboxylic group of aliphatic and aromatic amino acids (protein)
chain: AAQTNAPWGLARISSTSPGTSTYYYDESAGQGSCVYVIDTGIEASHPEFEGRAQMVKTYYYSSRDGNGHGTHCAGTVGSRTYGVAKKTQLFGVKVLDDNGSGQYSTIIAGMDFVASDKNNRNCPKGVVASLSLGGGYSSSVNSAAARLQSSGVMVAVAAGNNNADARNYSPASEPSVCTVGASDRYDRRSSFSNYGSVLDIFGPGTSILSTWIGGSTRSISGTSMATPHVAGLAAYLMTLGKTTAASACRYIADTANKGDLSNIPFGTVNLLAYNNYQA
With B1 the “(GR)1 concentration” value (enzyme 0.25 μg/mL, 0 min) was “BLQ”, the “(GR)2 concentration” value (enzyme 0.25 μg/mL, 0 min) was “BLQ” and the “(GR)4 concentration” value (enzyme 0.25 μg/mL, 0 min) was “BLQ”. For the same molecule, the “(GR)6 concentration” value (enzyme 0.25 μg/mL, 0 min) was “BLQ”, the “(GR)8 concentration” value (enzyme 0.25 μg/mL, 0 min) was 0.3 µM and the “(GR)10 concentration” value (enzyme 0.25 μg/mL, 0 min) was 44.9 µM. For the same molecule, the “(GR)1 concentration” value (enzyme 0.25 μg/mL, 2.5 min) was “BLQ”, the “(GR)2 concentration” value (enzyme 0.25 μg/mL, 2.5 min) was “BLQ” and the “(GR)4 concentration” value (enzyme 0.25 μg/mL, 2.5 min) was “BLQ”. The “(GR)6 concentration” value (enzyme 0.25 μg/mL, 2.5 min) was “BLQ”, the “(GR)8 concentration” value (enzyme 0.25 μg/mL, 2.5 min) was “BLQ” and the “(GR)10 concentration” value (enzyme 0.25 μg/mL, 2.5 min) was 55.8 µM. For the same molecule, the “(GR)1 concentration” value (enzyme 0.25 μg/mL, 5 min) was 0.1 µM, the “(GR)2 concentration” value (enzyme 0.25 μg/mL, 5 min) was “BLQ” and the “(GR)4 concentration” value (enzyme 0.25 μg/mL, 5 min) was “BLQ”. The “(GR)6 concentration” value (enzyme 0.25 μg/mL, 5 min) was “BLQ”, the “(GR)8 concentration” value (enzyme 0.25 μg/mL, 5 min) was “BLQ” and the “(GR)10 concentration” value (enzyme 0.25 μg/mL, 5 min) was 54.4 µM. For the same molecule, the “(GR)1 concentration” value (enzyme 0.25 μg/mL, 10 min) was 0.2 µM, the “(GR)2 concentration” value (enzyme 0.25 μg/mL, 10 min) was “BLQ” and the “(GR)4 concentration” value (enzyme 0.25 μg/mL, 10 min) was “BLQ”. For the same molecule, the “(GR)6 concentration” value (enzyme 0.25 μg/mL, 10 min) was “BLQ”, the “(GR)8 concentration” value (enzyme 0.25 μg/mL, 10 min) was “BLQ” and the “(GR)10 concentration” value (enzyme 0.25 μg/mL, 10 min) was 50.3 µM. For the same molecule, the “(GR)1 concentration” value (enzyme 0.25 μg/mL, 30 min) was 0.6 µM, the “(GR)2 concentration” value (enzyme 0.25 μg/mL, 30 min) was 0.2 µM and the “(GR)4 concentration” value (enzyme 0.25 μg/mL, 30 min) was 0.1 µM. The “(GR)6 concentration” value (enzyme 0.25 μg/mL, 30 min) was “BLQ”, the “(GR)8 concentration” value (enzyme 0.25 μg/mL, 30 min) was 0.3 µM and the “(GR)10 concentration” value (enzyme 0.25 μg/mL, 30 min) was 55.1 µM. The “(GR)1 concentration” value (enzyme 0.25 μg/mL, 60 min) was 1.0 µM, the “(GR)2 concentration” value (enzyme 0.25 μg/mL, 60 min) was 0.3 µM and the “(GR)4 concentration” value (enzyme 0.25 μg/mL, 60 min) was “BLQ”. The “(GR)6 concentration” value (enzyme 0.25 μg/mL, 60 min) was “BLQ”, the “(GR)8 concentration” value (enzyme 0.25 μg/mL, 60 min) was 0.3 µM and the “(GR)10 concentration” value (enzyme 0.25 μg/mL, 60 min) was 56.3 µM. The “(GR)1 concentration” value (enzyme 10 μg/mL, 0 min) was “BLQ”, the “(GR)2 concentration” value (enzyme 10 μg/mL, 0 min) was “BLQ” and the “(GR)4 concentration” value (enzyme 10 μg/mL, 0 min) was “BLQ”. For the same molecule, the “(GR)6 concentration” value (enzyme 10 μg/mL, 0 min) was “BLQ”, the “(GR)8 concentration” value (enzyme 10 μg/mL, 0 min) was “BLQ” and the “(GR)10 concentration” value (enzyme 10 μg/mL, 0 min) was 49.4 µM. For the same molecule, the “(GR)1 concentration” value (enzyme 10 μg/mL, 2.5 min) was 3.0 µM, the “(GR)2 concentration” value (enzyme 10 μg/mL, 2.5 min) was 0.5 µM and the “(GR)4 concentration” value (enzyme 10 μg/mL, 2.5 min) was 0.6 µM. For the same molecule, the “(GR)6 concentration” value (enzyme 10 μg/mL, 2.5 min) was 0.5 µM, the “(GR)8 concentration” value (enzyme 10 μg/mL, 2.5 min) was 0.6 µM and the “(GR)10 concentration” value (enzyme 10 μg/mL, 2.5 min) was 55.4 µM. For the same molecule, the “(GR)1 concentration” value (enzyme 10 μg/mL, 5 min) was 5.3 µM, the “(GR)2 concentration” value (enzyme 10 μg/mL, 5 min) was 0.8 µM and the “(GR)4 concentration” value (enzyme 10 μg/mL, 5 min) was 1.3 µM. For the same molecule, the “(GR)6 concentration” value (enzyme 10 μg/mL, 5 min) was 0.8 µM, the “(GR)8 concentration” value (enzyme 10 μg/mL, 5 min) was 1.3 µM and the “(GR)10 concentration” value (enzyme 10 μg/mL, 5 min) was 48.8 µM. For the same molecule, the “(GR)1 concentration” value (enzyme 10 μg/mL, 10 min) was 11.9 µM, the “(GR)2 concentration” value (enzyme 10 μg/mL, 10 min) was 1.4 µM and the “(GR)4 concentration” value (enzyme 10 μg/mL, 10 min) was 2.9 µM. For the same molecule, the “(GR)6 concentration” value (enzyme 10 μg/mL, 10 min) was 2.2 µM, the “(GR)8 concentration” value (enzyme 10 μg/mL, 10 min) was 2.6 µM and the “(GR)10 concentration” value (enzyme 10 μg/mL, 10 min) was 44.1 µM. For the same molecule, the “(GR)1 concentration” value (enzyme 10 μg/mL, 30 min) was 44.8 µM, the “(GR)2 concentration” value (enzyme 10 μg/mL, 30 min) was 5.7 µM and the “(GR)4 concentration” value (enzyme 10 μg/mL, 30 min) was 9.5 µM. For the same molecule, the “(GR)6 concentration” value (enzyme 10 μg/mL, 30 min) was 5.2 µM, the “(GR)8 concentration” value (enzyme 10 μg/mL, 30 min) was 3.5 µM and the “(GR)10 concentration” value (enzyme 10 μg/mL, 30 min) was 16.6 µM. For the same molecule, the “(GR)1 concentration” value (enzyme 10 μg/mL, 60 min) was 64.1 µM, the “(GR)2 concentration” value (enzyme 10 μg/mL, 60 min) was 10.1 µM and the “(GR)4 concentration” value (enzyme 10 μg/mL, 60 min) was 13.6 µM. The “(GR)6 concentration” value (enzyme 10 μg/mL, 60 min) was 6.6 µM, the “(GR)8 concentration” value (enzyme 10 μg/mL, 60 min) was 5.7 µM and the “(GR)10 concentration” value (enzyme 10 μg/mL, 60 min) was 10.6 µM.
